Measurements as given in publication PMC4775227, “Molecular mechanism of thermosensory function of human heat shock transcription factor Hsf1” (eLife, 2016).
Changes are numbered by the printed parent chain. Names may count otherwise. “And” between values parts separate entries of the source, which are not always exact repeats. Equal entries are not always repeated. Values belong to the binder of their own block, whether it stands above or below them.

What was measured:
[1] = target: T1, human heat shock transcription factor Hsf1, wild type (human), Q00613; experiment: HDX-MS; kinetics: 5 µM Hsf1 heat-shocked 10-1000 s at 35, 37, 39 or 42°C, then 30 s in D2O at 20°C; single exponential fits of the low-exchanging fraction; details: remark: other sources report otherwise
T1 chain: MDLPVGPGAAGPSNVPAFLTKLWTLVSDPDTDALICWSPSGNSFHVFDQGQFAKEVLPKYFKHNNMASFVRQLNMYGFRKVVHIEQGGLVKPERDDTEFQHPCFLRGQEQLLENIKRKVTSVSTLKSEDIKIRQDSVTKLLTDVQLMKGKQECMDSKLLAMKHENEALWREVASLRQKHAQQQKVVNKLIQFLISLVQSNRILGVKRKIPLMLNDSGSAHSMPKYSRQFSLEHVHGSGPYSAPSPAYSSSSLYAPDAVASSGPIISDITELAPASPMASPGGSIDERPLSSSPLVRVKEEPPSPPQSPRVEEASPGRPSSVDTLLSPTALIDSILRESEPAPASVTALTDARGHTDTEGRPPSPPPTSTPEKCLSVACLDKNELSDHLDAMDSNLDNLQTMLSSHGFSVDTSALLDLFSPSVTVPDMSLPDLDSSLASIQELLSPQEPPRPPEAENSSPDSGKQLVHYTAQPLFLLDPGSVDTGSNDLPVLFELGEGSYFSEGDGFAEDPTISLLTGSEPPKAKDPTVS

[2] = target: T1, human heat shock transcription factor …; experiment: native gel or EMSA; blue native polyacrylamide gel; monomeric Hsf1 after heat shock (42°C; pre-incubation at different temperatures for 10 min), Hsf1-buffer; also detected by immunoblot with Hsf1 antiserum; details: remark: other sources report otherwise
[3] = target: T1, human heat shock transcription factor …; experiment: HDX-MS + fluorescence polarisation; monomer to dimer; fit of the quadratic solution of the law of mass action to Tm values (10 min incubation, wild type) against Hsf1 concentration, assuming the fraction of dimer determines Tm; rough estimate; details: remark: other sources report otherwise
[4] = target: T1, human heat shock transcription factor …; experiment: SEC; S200 HiLoad 16/60 in Hsf1-buffer (25 mM Hepes pH 7.4, 150 mM NaCl, 10% glycerol, 2 mM DTT), 4°C, after Ni-IDA and cleavage of the SUMO tag; details: remark: other sources report otherwise
[5] = target: the molecule itself; experiment: HDX-MS; 5 µM Hsf1 or mutant in Hsf1-buffer pre-incubated 10 or 30 min at 20-42°C, diluted 1:20 into D2O buffer, 30 s at 20°C, quenched, online pepsin, LC-MS

rate of increase of the low-exchanging HR-A/B population (trimerization) at 35°C [1]: 0.0018 s⁻¹
rate of increase of the low-exchanging HR-A/B population (trimerization) at 37°C [1]: 0.0033 s⁻¹
rate of increase of the low-exchanging HR-A/B population (trimerization) at 39°C [1]: 0.0094 s⁻¹
rate of increase of the low-exchanging HR-A/B population (trimerization) at 42°C [1]: 0.016 s⁻¹
stoichiometry N [2]: 3
Kd [3]: 330 nM
stoichiometry N [4]: 2 and 3
B1: human heat shock transcription factor Hsf1, wild type, Q00613 1-529 (natural protein)
chain: T1 chain

B2: human Hsf1-S307D (natural protein, UniProt Q00613 1-529, looked up)
chain: T1 chain with S307D
notes: heat shock transcription factor 1 (Hsf1), human, phosphomimetic variant S307D; Probably made and purified as the wild type (6xHis-SUMO fusion in E. coli, tag cleaved); also called phosphomimetic Hsf1 variant
binding result [5]: binds

B3: human Hsf1-S303D (natural protein, UniProt Q00613 1-529, looked up)
chain: T1 chain with S303D
notes: heat shock transcription factor 1 (Hsf1), human, phosphomimetic variant S303D; Probably made and purified as the wild type (6xHis-SUMO fusion in E. coli, tag cleaved); also called phosphomimetic Hsf1 variant
binding result [5]: binds
